For 4 molecules, Kd results are on record in patent US20200317768A1 (published 2020).

A word on the Kd: it is the constant that tells how readily two partners part at equilibrium.

Assay in all cases: SPR (Biacore), antibody captured, FcgR analyte, 25 C
On the technique in general: SPR reads the build-up and loss of mass on a sensor chip optically.

The target of experiment [1] is T1, cynomolgus monkey FcγRIIb extracellular domain, C-terminal His-tag (cynomolgus monkey).
T1 construct: also called cyno FcγRIIb; cynoFcγRIIb; not shown: His-tag added to C-terminus
T1 chain: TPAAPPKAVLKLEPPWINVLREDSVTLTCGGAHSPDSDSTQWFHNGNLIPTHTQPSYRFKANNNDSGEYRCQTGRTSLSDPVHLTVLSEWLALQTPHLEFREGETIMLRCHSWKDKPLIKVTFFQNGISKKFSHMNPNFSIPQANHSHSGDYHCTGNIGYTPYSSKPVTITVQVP
As for the experimental part: (§1) The kinetic analysis of interactions between these antibodies and FcγR was carried out using BIACORE® T200 or BIACORE® 4000 (GE Healthcare). HBS-EP+ (GE Healthcare) was used as the running buffer, and the measurement temperature was set to 25° C. A chip produced by immobilizing Protein A. Protein A/G or mouse anti-human IgG kappa light chain (BD Biosciences) onto a Series S Sensor Chip CM4 or CM5 (GE Healthcare) by the amine-coupling method was used. […] After the measurement, the antibody captured on the chip was washed off by allowing reaction with 10 mM glycine-HCl, pH1.5 and 25 mM NaOH so that the chip was regenerated and used repeatedly. The sensorgrams obtained as measurement results were analyzed by the 1:1 Langmuir binding model using the BIACORE® Evaluation Software to calculate the binding rate constant ka (L/mol/s) and dissociation rate constant kd (l/s), and the dissociation constant KD (mol/L) was calculated from these values. […] Regarding such interactions, KD values were calculated using the following 1:1 binding model described in BIACORE® T100 Software Handbook BR1006-48 Edition AE.
(§2) The behavior of interacting molecules according to the 1:1 binding model on BIACORE® can be described by Equation 1: Req=C·R max/(KD+C)+RI, wherein, Req is a plot of steady-state binding levels to analyte concentration. C is concentration, RI is bulk refractive index contribution in the sample, and Rmax is analyte binding capacity of the surface. When this equation is rearranged, KD can be expressed as Equation 2: KD=C·Rmax/(Req−RI)−C. KD can be calculated by substituting the values of Rmax, RI, and C into Equation 1 or Equation 2. From the current measurement conditions, RI=0, C=2 μmol/L can be used.

For experiment [2], the target named is T2, cynomolgus monkey FcγRIIa3 extracellular domain, C-terminal His-tag (cynomolgus monkey).
T2 construct: also called cyno FcγRIIa3; cynoFcgRIIa3; not shown: His-tag added to C-terminus
T2 chain: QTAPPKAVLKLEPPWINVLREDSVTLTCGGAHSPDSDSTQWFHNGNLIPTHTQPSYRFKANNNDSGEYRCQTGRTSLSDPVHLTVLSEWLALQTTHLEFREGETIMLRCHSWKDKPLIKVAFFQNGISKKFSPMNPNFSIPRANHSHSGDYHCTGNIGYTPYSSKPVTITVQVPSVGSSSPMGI
As for the experimental part: as §1, §2

Experiment [3] deals with T3, cynomolgus monkey FcγRIIIaS extracellular domain, C-terminal His-tag (cynomolgus monkey, UniProt A3RFZ7 21-206 (rhesus entry)).
T3 construct: also called cyno FcγRIIIaS; cynoFcγRIIIaS; not shown: His-tag added to C-terminus
T3 sequence (A3RFZ7 21-206): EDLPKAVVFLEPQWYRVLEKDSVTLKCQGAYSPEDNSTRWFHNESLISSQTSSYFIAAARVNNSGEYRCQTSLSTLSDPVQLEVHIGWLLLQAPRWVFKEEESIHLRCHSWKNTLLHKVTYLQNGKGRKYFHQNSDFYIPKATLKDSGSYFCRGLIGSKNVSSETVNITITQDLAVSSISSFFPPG
As for the experimental part: as §1, §2

The target of experiment [4] is T4, human FcγRIIaR extracellular domain, C-terminal His-tag (human, UniProt P12318 34-217).
T4 construct: also called human FcγRIIa (type R); FcgRIIaR; not shown: His-tag added to C-terminus
T4 chain: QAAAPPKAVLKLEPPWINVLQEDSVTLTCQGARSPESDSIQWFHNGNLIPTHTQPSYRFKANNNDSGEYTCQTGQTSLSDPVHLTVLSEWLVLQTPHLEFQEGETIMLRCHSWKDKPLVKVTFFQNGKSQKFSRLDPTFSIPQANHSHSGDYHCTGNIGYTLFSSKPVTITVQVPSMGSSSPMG
How it is done: as §1, §2

Experiment [5] addresses T5, cynomolgus monkey FcγRIIa1 extracellular domain, C-terminal His-tag (cynomolgus monkey).
T5 construct: also called cyno FcγRIIa1; cynoFcgRIIa1; not shown: His-tag added to C-terminus
T5 chain: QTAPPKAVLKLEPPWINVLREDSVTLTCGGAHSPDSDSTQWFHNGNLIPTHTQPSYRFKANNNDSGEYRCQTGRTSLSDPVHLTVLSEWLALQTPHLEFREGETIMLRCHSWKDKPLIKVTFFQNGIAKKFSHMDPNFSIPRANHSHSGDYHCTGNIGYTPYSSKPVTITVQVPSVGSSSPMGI
As for the experimental part: as §1, §2

The target of experiment [6] is T6, human FcγRIIaH extracellular domain, C-terminal His-tag (human, UniProt P12318 34-217).
T6 construct: also called human FcγRIIa (type H); FcgRIIaH; not shown: His-tag added to C-terminus
T6 sequence: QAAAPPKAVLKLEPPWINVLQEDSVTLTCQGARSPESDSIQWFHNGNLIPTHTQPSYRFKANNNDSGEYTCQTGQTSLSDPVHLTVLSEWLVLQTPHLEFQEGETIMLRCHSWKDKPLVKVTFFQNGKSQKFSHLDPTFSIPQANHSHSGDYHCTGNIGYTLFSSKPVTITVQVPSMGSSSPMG
As for the experimental part: as §1, §2

Experiment [7] concerns the target T7, human FcγRIIb extracellular domain, C-terminal His-tag (human, UniProt P31994 43-217).
T7 construct: also called FcgRIIb (human); not shown: His-tag added to C-terminus
T7 sequence: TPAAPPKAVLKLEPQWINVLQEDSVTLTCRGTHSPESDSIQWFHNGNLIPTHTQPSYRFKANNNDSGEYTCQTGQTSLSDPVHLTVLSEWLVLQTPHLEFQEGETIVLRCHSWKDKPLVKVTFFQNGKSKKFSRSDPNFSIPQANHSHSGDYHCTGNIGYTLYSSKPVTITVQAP
As for the experimental part: as §1, §2

Experiment [8] deals with T8, cynomolgus monkey FcγRIIa2 extracellular domain, C-terminal His-tag (cynomolgus monkey).
T8 construct: also called cyno FcγRIIa2; cynoFcgRIIa2; not shown: His-tag added to C-terminus
T8 chain: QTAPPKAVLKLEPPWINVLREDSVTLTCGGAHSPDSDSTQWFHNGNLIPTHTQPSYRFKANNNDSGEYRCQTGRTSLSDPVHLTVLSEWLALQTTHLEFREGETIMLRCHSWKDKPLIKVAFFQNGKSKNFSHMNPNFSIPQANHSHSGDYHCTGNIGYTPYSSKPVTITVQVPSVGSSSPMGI
As for the experimental part: as §1, §2

B1: MS_M103205H795-SG1/M103202L889-SK1 (antibody, human IgG1, kappa)
heavy: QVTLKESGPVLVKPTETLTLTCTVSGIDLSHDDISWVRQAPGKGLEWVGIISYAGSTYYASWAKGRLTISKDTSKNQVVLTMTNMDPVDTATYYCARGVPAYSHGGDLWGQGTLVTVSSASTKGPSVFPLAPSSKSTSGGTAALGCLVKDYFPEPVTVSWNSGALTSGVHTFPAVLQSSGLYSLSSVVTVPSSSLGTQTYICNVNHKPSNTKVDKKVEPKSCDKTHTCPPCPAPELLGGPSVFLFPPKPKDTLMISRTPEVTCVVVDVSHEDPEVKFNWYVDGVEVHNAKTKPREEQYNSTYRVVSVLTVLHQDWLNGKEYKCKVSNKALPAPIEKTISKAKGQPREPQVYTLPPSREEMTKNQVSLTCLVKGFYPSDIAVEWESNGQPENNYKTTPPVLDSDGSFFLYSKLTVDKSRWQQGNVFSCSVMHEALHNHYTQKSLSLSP
light: DIVMTQSPATLSLSPGERATLSCTSSQSVYHANWLSWFQQKPGQPPKLLIYWASTLAYGVPSRFSGSGSGTDFTLTISSLQPEDAATYYCAGGYGGGRYAFGQGTKVEIKRTVAAPSVFIFPPSDEQLKSGTASVVCLLNNFYPREAKVQWKVDNALQSGNSQESVTEQDSKDSTYSLSSTLTLSKADYEKHKVYACEVTHQGLSSPVTKSFNRGEC
notes: Parent antibody; also called MS1032LO06-SG1
In the case of B1, the Kd in experiment [1] came out at 1800 nM; in experiment [2], 17000 nM; in experiment [3], 360 nM; in experiment [4] it was 1100 nM; in experiment [5] it was 3200 nM; in experiment [6] it was 690 nM. For the same molecule, the Kd in experiment [7] is 4600 nM; in experiment [8], 5100 nM.

B2: M103205H795-MY142/M103202L889-SK1 (antibody, human IgG1, kappa)
heavy: QVTLKESGPVLVKPTETLTLTCTVSGIDLSHDDISWVRQAPGKGLEWVGIISYAGSTYYASWAKGRLTISKDTSKNQVVLTMTNMDPVDTATYYCARGVPAYSHGGDLWGQGTLVTVSSASTKGPSVFPLAPSSKSTSGGTAALGCLVKDYFPEPVTVSWNSGALTSGVHTFPAVLQSSGLYSLSSVVTVPSSSLGTQTYICNVNHKPSNTKVDKKVEPKSCDKTHTCPPCPAPELLEGPSVFLFPPKPKDTLMISRTPEVTCVVVDVSEEDPEVKFNWYVDGVEVHNAKTKPREEQYNSTYRVVSVLTVLHQDWLNGKEYKCKVSNKALPAPIEKTISKAKGQPREPQVYTLPPSREEMTKNQVSLTCLVKGFYPSDIAVEWESNGQPENNYKTTPMVLDSDGSFFLYSKLTVDKSRWQQGNVFSCSVMHEALHNHYTQKSLSLSP
light: DIVMTQSPATLSLSPGERATLSCTSSQSVYHANWLSWFQQKPGQPPKLLIYWASTLAYGVPSRFSGSGSGTDFTLTISSLQPEDAATYYCAGGYGGGRYAFGQGTKVEIKRTVAAPSVFIFPPSDEQLKSGTASVVCLLNNFYPREAKVQWKVDNALQSGNSQESVTEQDSKDSTYSLSSTLTLSKADYEKHKVYACEVTHQGLSSPVTKSFNRGEC
As to B2, the Kd was 1800 nM in experiment [1]; 25000 nM in experiment [2]; 140 nM in experiment [3]; 170 nM in experiment [4]; 4100 nM in experiment [5]; 190 nM in experiment [6]. Besides, the Kd in experiment [7] came out at 950 nM; in experiment [8], 4900 nM.

B3: M103205H795-MY143/M103202L889-SK1 (antibody, human IgG1, kappa)
heavy: QVTLKESGPVLVKPTETLTLTCTVSGIDLSHDDISWVRQAPGKGLEWVGIISYAGSTYYASWAKGRLTISKDTSKNQVVLTMTNMDPVDTATYYCARGVPAYSHGGDLWGQGTLVTVSSASTKGPSVFPLAPSSKSTSGGTAALGCLVKDYFPEPVTVSWNSGALTSGVHTFPAVLQSSGLYSLSSVVTVPSSSLGTQTYICNVNHKPSNTKVDKKVEPKSCDKTHTCPPCPAPELLSGPSVFLFPPKPKDTLMISRTPEVTCVVVDVSEEDPEVKFNWYVDGVEVHNAKTKPREEQYNSTYRVVSVLTVLHQDWLNGKEYKCKVSNKALPAPIEKTISKAKGQPREPQVYTLPPSREEMTKNQVSLTCLVKGFYPSDIAVEWESNGQPENNYKTTPMVLDSDGSFFLYSKLTVDKSRWQQGNVFSCSVMHEALHNHYTQKSLSLSP
light: DIVMTQSPATLSLSPGERATLSCTSSQSVYHANWLSWFQQKPGQPPKLLIYWASTLAYGVPSRFSGSGSGTDFTLTISSLQPEDAATYYCAGGYGGGRYAFGQGTKVEIKRTVAAPSVFIFPPSDEQLKSGTASVVCLLNNFYPREAKVQWKVDNALQSGNSQESVTEQDSKDSTYSLSSTLTLSKADYEKHKVYACEVTHQGLSSPVTKSFNRGEC
Turning to B3, the Kd in experiment [1] worked out at 460 nM; in experiment [2], 2900 nM; in experiment [3], 280 nM; in experiment [4] it was 83 nM; in experiment [5], 1100 nM; in experiment [6] it was 37 nM. In addition, the Kd came out at 680 nM in experiment [7] and 1300 nM in experiment [8].

B4: M103205H795-MY228/M103202L889-SK1 (antibody, human IgG1, kappa)
heavy: QVTLKESGPVLVKPTETLTLTCTVSGIDLSHDDISWVRQAPGKGLEWVGIISYAGSTYYASWAKGRLTISKDTSKNQVVLTMTNMDPVDTATYYCARGVPAYSHGGDLWGQGTLVTVSSASTKGPSVFPLAPSSKSTSGGTAALGCLVKDYFPEPVTVSWNSGALTSGVHTFPAVLQSSGLYSLSSVVTVPSSSLGTQTYICNVNHKPSNTKVDKKVEPKSCDKTHTCPPCPAPELLGYPSVFLFPPKPKDTLMISRTPEVTCVVVDVSDEDPEVKFNWYVDGVEVHNAKTKPREELYNSTYRVVSVLTVLHQDWLNGKEYKCKVSNKALPKPIEKTISKAKGQPREPQVYTLPPSREEMTKNQVSLTCLVKGFYPSDIAVEWESNGQPENNYKTTPPVLDSDGSFFLYSKLTVDKSRWQQGNVFSCSVMHEALHNHYTQKSLSLSP
light: DIVMTQSPATLSLSPGERATLSCTSSQSVYHANWLSWFQQKPGQPPKLLIYWASTLAYGVPSRFSGSGSGTDFTLTISSLQPEDAATYYCAGGYGGGRYAFGQGTKVEIKRTVAAPSVFIFPPSDEQLKSGTASVVCLLNNFYPREAKVQWKVDNALQSGNSQESVTEQDSKDSTYSLSSTLTLSKADYEKHKVYACEVTHQGLSSPVTKSFNRGEC
As to B4, the Kd in experiment [1] is 1100 nM; in experiment [3], 9700 nM; in experiment [4] it was 100 nM; in experiment [5], 3000 nM; in experiment [6], 2200 nM; in experiment [7] it was 300 nM. The Kd in experiment [8] came out at 3300 nM.
